Source: patent publication US20160031945A1 (INDIANA UNIVERSITY RESEARCH AND TECHNOLOGY, published 2016)

Assays:
[1] = target: T1, CaV2.2 L1-GST fusion protein (first cytosolic loop of CaV2.2) (rat, UniProt Q02294 356-483); assay: SPR (BIAcore 3000), immobilized L1-GST
T1 construct: range 356-483; also called cytosolic loop 1; first intracellular loop; not shown: GST tag of the pGex-3x-Glu vector

[2] = target: T2, CaV2.2 Ct-dis-GST fusion protein (distal end of the C-terminus of CaV2.2) (rat, UniProt Q02294 2121-2336); assay: SPR (BIAcore 3000), immobilized Ct-dis-GST
T2 construct: range 2133-2348; also called distal C-terminus; not shown: GST tag of the pGex-3x-Glu vector
T2 sequence (Q02294 other isoform, or with tags, fused parts or gaps): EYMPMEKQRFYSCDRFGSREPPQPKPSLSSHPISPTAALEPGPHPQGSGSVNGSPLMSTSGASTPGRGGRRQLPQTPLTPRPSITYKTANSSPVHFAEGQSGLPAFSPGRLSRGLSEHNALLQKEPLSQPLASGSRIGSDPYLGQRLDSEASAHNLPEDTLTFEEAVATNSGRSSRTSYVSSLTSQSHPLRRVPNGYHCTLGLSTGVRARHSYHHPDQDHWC

T1 sequence (Q02294 other isoform, or with tags, fused parts or gaps): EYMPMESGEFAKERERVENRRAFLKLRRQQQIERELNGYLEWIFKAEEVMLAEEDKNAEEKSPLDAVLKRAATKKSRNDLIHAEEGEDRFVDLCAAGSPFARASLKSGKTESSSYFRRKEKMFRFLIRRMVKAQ

B1: TAT-Scramble (modified TAT sequence coupled to a random sequence) (peptide)
peptide: YGRKKRRQRRRWEAKEMLYFEALVIE
notes: also called TAT control; scramble peptide
[1]
  binding result: no binding (tested: 1/3/5 µM)
[2]
  binding result: no binding (tested: 1/3/5 µM)
